{
  "source": "paper PMC7042235",
  "about": "“Structural basis for two-way communication between dynein and microtubules” (Nature Communications, 2020)",
  "binders": {"B1": {"name": "MTBD-Low, MTBD(S3097C/V3222C) (domain or fragment)", "chain": "KCIQDIEPTILEAQRGVKNIKKQQLTEIRSMVNPPSGVKIVMEAVCAILGYQFSNWRDIQQFIRKDDFIHNIVHYDTTLHMKPQIRKYMEEEFLSDPNFTYETINRASKACGPLYQWVNAQINFSKCLENVDPLRQE", "modifications": "intramolecular disulfide bond between C3097 (CC1) and C3222 (CC2)"}},
  "target": "T1, microtubules (polymerized porcine tubulin) (porcine, UniProt P02550 1-451; P02554 1-445)",
  "T1 construct": "alpha-tubulin of porcine tubulin; beta-tubulin of porcine tubulin; Polymer of alpha/beta-tubulin dimers; 14-protofilament MTs were selected for cryo-EM; The species is stated only for the co-sedimentation assay; also called MT; MTs; source: porcine tubulin, polymerized (stabilised with 10 uM paclitaxel for co-sedimentation; GMPCPP-MT for cryo-EM)",
  "assay": "co-sedimentation; purified MTBDs (1-32 uM) mixed with 5 uM paclitaxel-stabilised porcine MTs; 100 mM PIPES pH 6.8, 50 mM NaCl, 2 mM MgCl2, 1 mM EGTA; 210,000 x g, 25 °C, 10 min; pellets on SDS-PAGE, densitometry, one-site curve fitting",
  "details": "both partners purified",
  "data": [
    {"binder": "B1", "values": [
      {"measurement": "Kd", "value": "> 200", "unit": "µM"}
    ]}
  ]
}
